According to doi:10.1101/2022.10.14.512337:
Where “and” joins values, the source holds several entries; their conditions need not be identical. Equal values may be shown once.

Experiments:
[1] = target: L. farciminis oxalate decarboxylase (OxDC), as used for size-exclusion chromatography (L. farciminis); experiment: SEC
[2] = target: truncated protein consisting of the main body of L. farciminis OxDC (aa 22-373) (L. farciminis); experiment: crystal structure

| Substance | stoichiometry N [1] | stoichiometry N [2] |
| --- | --- | --- |
| L. farciminis oxalate decarboxylase (OxDC), as used for size-exclusion chromatography (enzyme) | 2 and 6 | – |
| truncated protein consisting of the main body of L. farciminis OxDC (aa 22-373) (domain or fragment) | – | 6 |
